Several values for one entry are separate records, joined by “and”; a condition that tells them apart may be missing. Identical values can stand only once.
Legend:
[1] = target: T1, GRK2 (Bos taurus, UniProt P21146); experiment: GRK2 kinase activity in vitro (casein substrate); type: biochemical; settings: 0.5 μM
T1 construct: made in house; host or cells: Sf9 cells (baculovirus)
T1 sequence (P21146 1-689): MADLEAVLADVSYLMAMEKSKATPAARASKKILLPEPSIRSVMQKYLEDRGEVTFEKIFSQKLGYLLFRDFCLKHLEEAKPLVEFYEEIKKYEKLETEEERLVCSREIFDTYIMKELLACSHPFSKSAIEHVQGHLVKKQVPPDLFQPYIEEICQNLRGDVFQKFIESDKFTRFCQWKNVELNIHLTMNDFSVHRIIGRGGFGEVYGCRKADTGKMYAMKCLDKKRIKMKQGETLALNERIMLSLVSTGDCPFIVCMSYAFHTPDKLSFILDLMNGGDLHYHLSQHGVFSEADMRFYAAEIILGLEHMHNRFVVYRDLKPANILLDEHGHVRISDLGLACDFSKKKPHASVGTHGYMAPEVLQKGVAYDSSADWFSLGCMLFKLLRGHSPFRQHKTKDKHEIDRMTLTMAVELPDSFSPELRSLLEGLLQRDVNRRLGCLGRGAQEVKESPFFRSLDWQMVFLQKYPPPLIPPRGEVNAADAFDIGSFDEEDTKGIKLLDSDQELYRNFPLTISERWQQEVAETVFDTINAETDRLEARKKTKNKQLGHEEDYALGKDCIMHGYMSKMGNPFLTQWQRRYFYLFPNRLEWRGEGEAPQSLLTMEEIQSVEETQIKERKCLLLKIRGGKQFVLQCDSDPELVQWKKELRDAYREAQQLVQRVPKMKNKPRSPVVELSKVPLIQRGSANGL

[2] = tested on: 3T3-L1 cells; experiment: adipocyte differentiation of 3T3-L1 (Oil Red staining, adipocyte count); type: cell-based
From the text: 3T3L1 lines stably transfected with pCDNA3-GRK2 and pCDNA3-GRK2K220R were made. GRK2 (anti-GRK2) expression controls obtained in cell lines, compared to 3T3L1 levels, are included. The cells were subjected to a standard differentiation treatment and on day 15 of the latter, the cells were fixed with formalin and stained with Oil Red, a lipophilic coloring which binds to the fats accumulated by the adipocytes. The cells with adipocytic phenotype (in red) were counted under microscope in a total of 25 fields. Representative photographs of two independent experiments are shown in duplicate. A photo of the 3T3L1 cells, free of stimulation with insulin during the differentiation process (control), is also included. The graph reflects the adipocyte count (±SEM) in these experiments.
The cell culture was carried out with 10% DMEM medium of NCS serum. However, the entire differentiation process which is described below must be performed in depleted AXC serum (ion exchange resin) by means of successive adsorptions of fetal calf serum on an anion exchange resin and on active carbon. AXC serum was provided by the kitchen service of the Instituto of Investigaciones Biomédicas (Biomedical Research Institute). The cells are grown until their confluence and are plated (5×10^5 in P-100) in DMEM-10% AXC medium, supplemented with 4 μM of biotin (Sigma). The following day, the medium is replaced with fresh medium. The cells are grown another three days, until confluence is reached again, that day is called day “0”. On day 0 of differentiation, the cells are cultured in a medium containing: 0.5 μM dexamethasone (Sigma), 0.5 mM 3-isobutyl-1-methylxanthine (IMBX, of Sigma) and 1 μM insulin (Sigma) and in which they will remain for another three days. […] From day 6 to day 15, the adipogenesis was analyzed by staining with Oil Red, a red coloring of lipophilic constitution which binds to the drops of fat accumulated by the adipocytes in their cytoplasm. […] The cells are counted in a total of 25 fields per each experimental plate.

[3] = tested on: 3T3-L1 cells; settings: prior demonstration of p38 involvement; cited from earlier work
[4] = target: T2, p38 (GST-p38) (Mus musculus, UniProt P47811); experiment: p38 phosphorylation by GRK2 in vitro (kinetic characterization); type: biochemical
T2 construct: with whole p38α in the same conditions as described in section A; made in house; host or cells: E. coli (GST-p38); Sf9 cells with baculovirus (GRK2)
Procedure: Normally, the phosphorylation reactions are left to take place for 30 minutes at 30° C. In the case of two-dimensional electrophoresis or of the samples intended for proteomic sequencing, the reaction extends to 1 or 2 hours.
The Michaelis-Menten behaviour of the kinases was assumed for calculating the kinetic constants of the enzymatic reactions. The graphs were made with the “Kaleidagraph” program, provided with an algorithm capable of deducing the kinetic parameters: Michaelis-Menten constant (Km) and maximum speed (Smax=So (nmol of PO4^3-incorporated. mg of enzyme^−1minute^−1)

[5] = target: T3, Flag-p38α (Mus musculus, UniProt P47811); experiment: […] peptide phosphorylation by immunoprecipitated Flag-p38; type: biochemical; settings: HEK 293 cells transfected with Flag-p38α, MKK6CAM and 1 or 2 μg pCDNA3-GRK2
T3 construct: expressed in transfected cells; host or cells: HEK 293 cells, co-transfected with pCDNA3-MKK6CAM and with or without pCDNA3-GRK2
Procedure: FIG. 4A: HEK 293 cells, seeded in p60, were transiently transfected with 0.5 μg of pCDNA3-Flag-p38α, 0.5 μg of pCDNA3-MKK6CAM(or 0.5 μg of empty pCDNA3 in the control, CTRL), and with 1 or 2 μg of the pCDNA3-GRK2 (+) vector, carrying out each point in duplicate. The controls were carried out in a parallel way, substituting the pCDNA3-GRK2 μg with pCEFL-EGFP (−). The total DNA amount was completed with empty pCDNA3. After 48 hours, the cells were lysed, lysate aliquots were taken and Flag-p38 was immunoprecipitated from them. […] FIG. 4B: The immunoprecipitates were washed three times with 15 ml of M2 buffer and two times with 15 ml of phosphorylation buffer without ATP (15 mM NaF, 25 mM Hepes pH 7.5 and 10 mM magnesium acetate). In the last washing step, the agarose-immune complexes were resuspended in 1 ml of buffer and 10% of each point was separated to control the immunoprecipitation of Flag-p38 (panel inserted in the graph of section B). Kinase-assays were carried out with immunoprecipitated Flag-p38, using [sequence] peptide (initially provided by CalbioChem and subsequently synthesized by the Servicio de Química de Proteínas (Protein Chemistry Service) of the CBMSO) as a substrate. […] ATP and 2 mM of the peptide substrate. […] They were left to dry, were abundantly washed with 75 mM phosphoric acid and the radioactivity incorporated by the adsorbed peptide was quantified by Cerenkov. […]

[6] = tested on: Flag-p38; experiment: GRK2 overexpression: p38 activation by MKK6CAM in HEK 293 cells; type: cell-based, human; settings: increasing doses of pCDNA3-GRK2 (0 to 1 μg)
Procedure: FIG. 3A: HEK 293 cells, normally seeded in multiwell plates with 6 or 12 wells (M6 or M12), were transiently transfected with pCDNA3-Flag-p38α, pCDNA3-MKK6CAM, and with increasing amounts of the pCDNA3-GRK2 vector. In this experiment, M6 plates were used and the DNA amounts introduced were: 100 ng of Flag-p38, 100 ng of MKK6CAM, and 0 to 1 μg of GRK2. In all points, the total amount of DNA was completed with pCEFL-EGFP and with empty pCDNA3 instead of pCDNA3-MKK6CAM, in the case of the control (CTRL). After 48 hours, the cells were harvested by lysing them in M2 buffer. […] The p38 activation state was evaluated with anti-phospho-p38, of Cell Signaling, and after giving off the antibodies of the first immunodetection, it was detected with total anti-p38, of the same company. […] The Flag-p38 activation state was determined in the same way as in A. Furthermore, the correct MKK6CAM expression was assured with the anti-MKK6/SKK3 antibody of Upstate Biotechnology. […]
The HE 293 cells, generally subjected to starvation (medium without serum) of a variable duration: 2 hours in the case of p38 and all night in the case of ERK, were stimulated and, after processing the lysate cells, the immunodetection of the phosphoproteins was carried out with the phospho-specific antibodies of the activation segments of both proteins. […] The quantification of the bands was carried out in a laser densitometer. […]

[7] = tested on: sinucleins; settings: depending on the subtypes; cited from earlier work
[8] = tested on: β-tubulins; settings: depending on the subtypes; cited from earlier work
[9] = tested on: phosducin and the protein similar to phosducin (PhD and PhLP); settings: cited from earlier work

T2 sequence (P47811 whole entry): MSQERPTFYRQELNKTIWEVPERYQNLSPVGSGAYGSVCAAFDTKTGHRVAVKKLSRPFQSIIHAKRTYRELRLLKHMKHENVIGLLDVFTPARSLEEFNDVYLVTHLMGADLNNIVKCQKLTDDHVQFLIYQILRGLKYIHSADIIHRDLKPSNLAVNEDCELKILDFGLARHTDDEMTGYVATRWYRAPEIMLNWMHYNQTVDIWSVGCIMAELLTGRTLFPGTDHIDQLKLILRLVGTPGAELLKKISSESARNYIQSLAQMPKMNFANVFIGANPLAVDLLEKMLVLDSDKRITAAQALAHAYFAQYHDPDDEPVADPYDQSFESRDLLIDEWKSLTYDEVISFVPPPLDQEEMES
T3 sequence (P47811 whole entry): as above

Molecule | effect on kinase activity of GRK2 [1] | effect on adipogenesis ([2]; 10 μM, insulin-induced differentiation) | effect on differentiation into adipocytes [3] | maximum speed (Smax) ([4]; GRK2 25 nM, p38 12.5 to 400 nM, 15 minutes) | Km ([4]; GRK2 25 nM, p38 12.5 to 400 nM, 15 minutes, 30° C., read-out: Michaelis-Menten constant (Km)) | stoichiometry of phosphorylation ([4]; at least three quantifications by Cerenkov) | average time for reaching 50% of the maximum phosphorylation ([4]; time course 0 to 90 minutes) [min] | catalytic activity of immunoprecipitated p38 on APR peptide [5] | acquisition of the adipocytic morphology mediated by insulin ([2]; 3T3L1 lines stably transfected, day 15) | p38 activation dependent on MKK6CAM [6] | Km [7] [µM] | Km [8] [µM] | Km [9] [µM]
C[S+]([O-])c1ccc(-c2nc(-c3ccncc3)c(-c3ccc(F)cc3)[nH]2)cc1 (stereo not shown) [SB203580] | does not affect the kinase activity of GRK2 | reverses the entire adipogenesis | blocked |  |  |  |  |  |  |  |  |  | 
GRK2: G protein-coupled receptor kinase 2; recombinant, purified by the Baculovirus system; phosphorylates Thr123 of p38 |  |  |  | 0.9 nmol of PO4^3-incorporated per mg GRK2^−1 minute^−1 | 0.0796 µM and 0.08 µM | 0.4-0.8 mol Pi/mol p38 | 15 | dimmed | inhibits the acquisition of the adipocytic morphology mediated by insulin | decreased more as more amounts of GRK2 were expressed | 1 to 2 | 1 to 2 | 0.04 to 0.1

From US20080233097A1, “Phosphorylation Site Of Mitogen-Activated Protein Kinases, Modified Proteins And Applications” (UNIVERSIDAD AUTONOMA DE MADRID, priority 2005, published 2008)
